Data set [1] has as its target porcine albumin (Sus scrofa, UniProt P08835). Description: Binding to porcine albumin, in vitro assay. To be noted: relative to the reference compound EXA. The protocol:
The binding to porcine albumin was determined in an in vitro assay. The values given in Table 1 under the heading “Albumin binding” are relative to the reference compound EXA.

The conditions of data set [2]: pH 7.3.
Protocol: The lipophilicity of the insulin derivatives relative to human insulin, k″rel, was measured on a LiChrosorb RP18 (5 μm, 250×4 mm) HPLC column by isocratic elution at 40° C. using mixtures of A) 0.1 M sodium phosphate buffer, pH 7.3, containing 10% acetonitrile, and B) 50% acetonitrile in water as eluents. The elution was monitored by following the UV absorption of the eluate at 214 nm. Void time, t0, was found by injecting 0.1 mM sodium nitrate. Retention time for human insulin, thuman, was adjusted to at least 2t0 by varying the ratio between the A and B solutions. k′rel=(tderivative−t0)/(thuman−t0).
For data set [3] the following is noted: pig, in vivo, sc.
Description: Determination of Disappearance Half-life, T50%, from the Injection Site after Subcutaneous Injection of an Insulin Derivative in Pigs.

From patent US6451970B1, “Peptide derivatives” (Novo Nordisk A/S, priority 1996, dated 2002) come the findings set out here.

porcine albumin, sequence (P08835 25-607): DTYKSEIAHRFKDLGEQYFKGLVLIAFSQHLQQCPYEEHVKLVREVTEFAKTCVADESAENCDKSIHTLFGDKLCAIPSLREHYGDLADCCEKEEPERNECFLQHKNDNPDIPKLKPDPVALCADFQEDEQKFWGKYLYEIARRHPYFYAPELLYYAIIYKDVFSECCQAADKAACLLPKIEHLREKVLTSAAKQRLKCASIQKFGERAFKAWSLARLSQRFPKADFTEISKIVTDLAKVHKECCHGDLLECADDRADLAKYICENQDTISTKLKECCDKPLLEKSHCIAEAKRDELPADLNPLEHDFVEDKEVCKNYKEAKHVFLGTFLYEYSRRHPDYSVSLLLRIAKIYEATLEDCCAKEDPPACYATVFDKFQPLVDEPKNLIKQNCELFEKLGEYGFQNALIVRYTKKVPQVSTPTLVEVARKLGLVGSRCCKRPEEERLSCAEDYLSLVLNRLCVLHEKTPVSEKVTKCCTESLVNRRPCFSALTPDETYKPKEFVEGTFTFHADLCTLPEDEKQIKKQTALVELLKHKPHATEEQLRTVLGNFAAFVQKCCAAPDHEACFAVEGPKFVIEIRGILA

In the case of “N^εB29-(CO—(CH2)14—COOH) des(B30) Human Insulin [EX2]”, in data set [1], the Albumin binding came to 5. The Lipophilicity in data set [2] is recorded as 2.3. Further, the “T50%” value in data set [3] stood at 10 h.

In the case of “N^εB29-(CO—(CH2)16—COOH) des(B30) Human Insulin [EX4]”, the Albumin binding in data set [1] came to 36. For the same substance, the Lipophilicity in data set [2] came out at 7.2. Moreover, in data set [3], the “T50%” value worked out at 17.1 h.

On to “N^εB29-(CO—(CH2)18—COOH) des(B30) Human Insulin [EX3]”, for which the Albumin binding in data set [1] came out at 51. Moreover, the Lipophilicity in data set [2] stood at 17. Moreover, in data set [3], the “T50%” value came out at 18 h.

Take “N^εB29-(CO—(CH)12—COOH) des(B30) human insulin [EX1]”: the Albumin binding in data set [1] amounted to 0.7. In addition, the Lipophilicity in data set [2] is given as 1.4. Moreover, the “T50%” value in data set [3] is 5 h.

In data set [1], “N^εB29-hexadecanoyl desB30 insulin [EXB, reference compound]” gave an Albumin binding of 0.9. The substance further showed a Lipophilicity in data set [2] of 346. The “T50%” value in data set [3] stood at 12 h.

In data set [1], “N^εB29-tetradecanoyl desB30 insulin [EXA, reference compound]” showed an Albumin binding of 1. In data set [2], the Lipophilicity turned out to be 113. Moreover, the “T50%” value in data set [3] is 14 h.
